The results in this text go back to patent US20100316634A1 (published 2010).

In general, Kd refers to a measure of binding affinity in units of concentration. The term IC50 denotes the concentration at which inhibition is half-maximal.

The target of assay [1] is T1, recombinant human interleukin 5 (IL-5) (human, UniProt P05113 20-134, 125I label (Bolton-Hunter reagent) in the receptor binding inhibition and colony lift assays).
T1 construct: also called human IL-5; hIL-5
The assay can be described thus: optical biosensor.

Assay [2] deals with T1, recombinant human interleukin 5 (IL-5). The assay can be described thus: receptor binding inhibition, 125I-IL-5 on Drosophila membranes with the IL-5R alpha chain. Here is the method:
Membrane extracts of Drosophila S2 cells expressing the […] of the human IL-5 Receptor (IL-5R) were used to measure the effect of antibody on IL-5 binding to receptor. To prepare the membranes, 10⁹ cells were pelleted at 1000×g at 4° C. for 10 min. The cell pellet was frozen in a dry ice/ethanol bath for 15 min. The pellet was thawed, resuspended in 10 ml PBS at 4° C. and pelleted at 1000×g for 10 min. The cell pellet was washed 2× in PBS and resuspended in 13.5 ml Hypotonic buffer (10 mM Tris pH 7.5, 3 mM MgCl₂, 1 mM dithiothreitol, 1 mM phenylmethylsulfonyl fluoride, 1 uM leupeptin, 1 uM pepstatin A) and incubated on ice for 5 min. The cell suspension was homogenized in a 15 ml Dounce homogenizer and brought to a final concentration of 0.25 M sucrose with a solution of 2.5 M sucrose. Cell debris was removed by a 15 min centrifugation at 1000×g. Cell membranes were pelleted at 100,000×g at 4° C. for 90 min and resuspended in 50 ml of 10 mM Tris pH 7.5, 3 mM MgCl₂, 250 mM sucrose, and stored at −70° C.
Assays with Drosophila membranes containing receptor were performed in MultiscreenGV plates (Millipore Corp., Bedford, Mass.) using Drosophila tissue culture medium M3 (Lindquist et al., Drosophila Inf. Serv., 58: 163 (1982)) containing 25 mM HEPES buffer pH 7.2 and 0.1% BSA (Binding Buffer). Wells were pre-blocked with 0.1 ml binding buffer. […] Filters were dried and counted.

B1: recombinant Fab of mAb 2B6 with C-terminal hexa-His on the heavy chain (Fab, V domains shown)
VH: QVQLKESGPGLVAPSQSLSITCTVSGFSLTSYSVHWVRQPPGKGLEWLGVIWASGGTDYNSALMSRLSISKDNSKSQVFLKLNSLQTDDTAMYYCARDPPSSLLRLDYWGQGTTLTVSS
VL: DIVMTQSPSSLSVSAGEKVTMSCKSSQSLLNSGNQKNYLAWYQQKPGQPPKLLIYGASTRESGVPDRFTGSGSGTDFTLSISSVQAEDLAVYYCQNVHSFPFTFGSGTELEIK
notes: Expressed in E. coli from pMKFabGene3H after removal of gene III; N-terminal residues may be set by the PCR primers; also called Fab fragment from 2B6; 2B6 Fab; not shown: murine gamma 1 constant part of the Fd (CH1 to hinge); murine kappa constant region
For the molecule B1, the Kd in assay [1] was ~0.09 nM. In addition, the IC50 in assay [2] is ~7.5 µg/mL.
